Numbering of substitutions follows the chain as printed. In names and notes the source's numbering stands.

For experiment [1], the target named is T1, HA-REST S861A/S864A (human, UniProt Q13127 1-1097).
T1 construct: mature; Expressed in HEK293T cells and tested in cell extracts; also called mutant S861A/S864A REST; not shown: HA tag
T1 sequence (looked up): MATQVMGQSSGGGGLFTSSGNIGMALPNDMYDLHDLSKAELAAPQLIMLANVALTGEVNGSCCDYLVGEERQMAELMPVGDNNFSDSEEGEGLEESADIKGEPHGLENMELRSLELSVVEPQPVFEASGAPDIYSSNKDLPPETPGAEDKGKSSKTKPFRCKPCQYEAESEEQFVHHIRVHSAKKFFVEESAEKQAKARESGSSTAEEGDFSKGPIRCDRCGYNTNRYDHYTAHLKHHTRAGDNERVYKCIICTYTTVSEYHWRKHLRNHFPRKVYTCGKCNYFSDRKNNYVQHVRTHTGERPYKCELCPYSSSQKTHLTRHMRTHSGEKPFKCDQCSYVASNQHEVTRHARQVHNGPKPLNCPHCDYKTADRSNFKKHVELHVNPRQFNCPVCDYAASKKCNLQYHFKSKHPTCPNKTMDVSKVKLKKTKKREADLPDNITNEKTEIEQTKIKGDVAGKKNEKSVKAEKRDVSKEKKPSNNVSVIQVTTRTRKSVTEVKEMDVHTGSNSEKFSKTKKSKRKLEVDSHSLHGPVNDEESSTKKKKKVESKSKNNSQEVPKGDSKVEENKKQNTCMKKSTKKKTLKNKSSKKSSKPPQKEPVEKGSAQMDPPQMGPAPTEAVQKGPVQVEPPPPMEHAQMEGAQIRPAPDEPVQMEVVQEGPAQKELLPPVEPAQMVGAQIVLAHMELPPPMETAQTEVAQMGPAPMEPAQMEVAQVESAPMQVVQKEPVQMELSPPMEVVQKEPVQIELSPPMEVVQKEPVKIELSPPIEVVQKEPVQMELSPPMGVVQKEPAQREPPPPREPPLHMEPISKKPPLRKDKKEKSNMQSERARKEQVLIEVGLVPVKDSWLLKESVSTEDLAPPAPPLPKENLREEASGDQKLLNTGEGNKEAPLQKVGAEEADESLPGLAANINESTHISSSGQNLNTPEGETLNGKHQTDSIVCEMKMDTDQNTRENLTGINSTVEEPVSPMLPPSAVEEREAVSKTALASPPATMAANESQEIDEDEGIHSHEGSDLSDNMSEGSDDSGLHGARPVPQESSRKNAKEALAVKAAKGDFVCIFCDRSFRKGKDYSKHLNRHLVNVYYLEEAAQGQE
Briefly: FLAG immunoprecipitation from transfected HEK293T cells, Western blot. The text has this:
CTDSP1 was first identified as a nuclear phosphatase targeting the C-terminus of RNA polymerase II (R HR et al, BMB Rep 47, 192-196 (2014); Feng Y et al, Biochem Biophys Res Commun 397, 355-360 (2010); and Zhang Y et al, Mol Cell 24, 759-770 (2006); all of which are incorporated by reference herein). Subsequently it was implicated in REST repression of neuronal gene expression in P19 embryonal carcinoma cells that have the capacity to differentiate into neurons (Visvanathan J et al, Genes Dev 21, 744-749 (2007); incorporated by reference herein). […] REST was detected in FLAG-immunocomplexes only when the site was unmutated or double-substituted with glutamate, a phosphorylation-mimic.
Whole cell lysates were prepared and immunoprecipitated following the procedures in Ballas N et al, 2001 supra and Nesti E et al, Mol Biol Cell 15, 4073-4088 (2004); incorporated by reference herein. Western blots were performed by standard procedures using antibodies described below and analyzed using anti IgG conjugated to infrared dyes (ThermoFisher) on an Odyssey® infrared fluorescence imager (LiCor). […] Infrared fluorescence was detected on the Odyssey® imager (LiCor) in the 700 nm channel. […]

For experiment [2], the target named is T2, HA-REST E1009A/S1013A/S1024A/S1027A/S1030A (human, UniProt Q13127 1-1097).
T2 construct: mature; Expressed in HEK293T cells and tested in cell extracts; also called E1009A/S1013/24/27/30A; REST degron mutant; not shown: HA tag
T2 sequence (looked up): T1 sequence (looked up) with A861S, A864S, E1009A, S1013A, S1024A, S1027A, S1030A
Briefly: GST pull-down on glutathione agarose from co-transfected HEK293T cells, Western blot. As to the method:
HA-REST cDNAs were transfected into HEK293T cells along with GST-βTrCP, and FLAG-Dominant Negative Cull to stabilize REST. Cell extracts were collected on glutathione agarose and probed with anti-HA or anti-GST antibodies.
Whole cell lysates were prepared and immunoprecipitated following the procedures in Ballas N et al, 2001 supra and Nesti E et al, Mol Biol Cell 15, 4073-4088 (2004); incorporated by reference herein. Western blots were performed by standard procedures using antibodies described below and analyzed using anti IgG conjugated to infrared dyes (ThermoFisher) on an Odyssey® infrared fluorescence imager (LiCor). For detecting phosphorylated REST at S861/S864, cell extracts were prepared lacking phosphatase inhibitors. For phosphatase treatment, 75 μg of total protein was treated with 600 U lambda phosphatase (New England Biolabs) or with buffer alone at 30° C. for 1 h, according to the manufacturer's protocol. Thirty-five μg of treated protein were resolved by SDS-PAGE and Western blotted with the non-phospho-depleted anti REST phospho antibody (rabbit #101) at 1:500 in 3% BSA/1×TBS-0.5% Tween-20® overnight at 4° C., followed by anti-rabbit IgG-IR680 conjugated secondary antibody (Thermo Fisher) at 1:15000 in 5% milk/TBS-Tween for 1 hour at room temp. Infrared fluorescence was detected on the Odyssey® imager (LiCor) in the 700 nm channel. […]
(Immunoblotting shows a protein as a band on a membrane.)

In experiment [3] the target is T3, Pin1 (peptidyl-prolyl cis/trans isomerase), human (human, UniProt Q13526 1-163).
T3 construct: also called Human Pin1
Description: co-immunoprecipitation from transfected HEK293T cells, Western blot. The method, then:
FIG. 4A is an image of a Western blot of co-immunoprecipitation analysis showing Pin1 is present in REST (810-910) immunoprecipitates in a phospho-dependent manner. HEK293T cells were transfected with Pin1 cDNA and either WT or mutant (S861A/S864A) FLAG-REST (810-910) or FLAG-control (595-694) peptide cDNAs (FIG. 3). After 48 hours, the cells were extracted and immunoprecipitated. Western blots were probed with the indicated antibodies.
To confirm this, HEK cells were transfected with FLAG-Pin1 and cDNAs encoding the 100 amino acid peptides described above containing an S861/S864 or an S861A/S864A sites. Pin1 was present in immunocomplexes of unmutated REST (810-910) reporter peptides, but not phosphorylation-resistant mutant S861A/S864A peptides (FIG. 4A). […]
Whole cell lysates were prepared and immunoprecipitated following the procedures in Ballas N et al, 2001 supra and Nesti E et al, Mol Biol Cell 15, 4073-4088 (2004); incorporated by reference herein. Western blots were performed by standard procedures using antibodies described below and analyzed using anti IgG conjugated to infrared dyes (ThermoFisher) on an Odyssey® infrared fluorescence imager (LiCor). […]

T3 sequence (Q13526 whole entry): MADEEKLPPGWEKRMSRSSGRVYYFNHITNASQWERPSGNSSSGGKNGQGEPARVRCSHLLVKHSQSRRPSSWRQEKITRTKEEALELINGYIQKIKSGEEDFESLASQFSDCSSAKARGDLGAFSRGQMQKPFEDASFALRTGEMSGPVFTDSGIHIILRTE

B1: FLAG-CTDSP1 (enzyme, not shown: small tags and cut ends)
chain: MDSSAVITQISKEEARGPLRGKGDQKSAASQKPRSRGILHSLFCCVCRDDGEALPAHSGAPLLVEENGAIPKQTPVQYLLPEAKAQDSDKICVVIDLDETLVHSSFKPVNNADFIIPVEIDGVVHQVYVLKRPHVDEFLQRMGELFECVLFTASLAKYADPVADLLDKWGAFRARLFRESCVFHRGNYVKDLSRLGRDLRRVLILDNSPASYVFHPDNAVPVASWFDNMSDTELHDLLPFFEQLSRVDDVYSVLRQPRPGS
notes: also called C-terminal domain small phosphatase
In the case of B1, the binding result in experiment [1] was “no binding”.

B2: GST-βTrCP (other, UniProt Q9Y297 1-605, looked up)
chain: MDPAEAVLQEKALKFMCSMPRSLWLGCSSLADSMPSLRCLYNPGTGALTAFQNSSEREDCNNGEPPRKIIPEKNSLRQTYNSCARLCLNQETVCLASTAMKTENCVAKTKLANGTSSMIVPKQRKLSASYEKEKELCVKYFEQWSESDQVEFVEHLISQMCHYQHGHINSYLKPMLQRDFITALPARGLDHIAENILSYLDAKSLCAAELVCKEWYRVTSDGMLWKKLIERMVRTDSLWRGLAERRGWGQYLFKNKPPDGNAPPNSFYRALYPKIIQDIETIESNWRCGRHSLQRIHCRSETSKGVYCLQYDDQKIVSGLRDNTIKIWDKNTLECKRILTGHTGSVLCLQYDERVIITGSSDSTVRVWDVNTGEMLNTLIHHCEAVLHLRFNNGMMVTCSKDRSIAVWDMASPTDITLRRVLVGHRAAVNVVDFDDKYIVSASGDRTIKVWNTSTCEFVRTLNGHKRGIACLQYRDRLVVSGSSDNTIRLWDIECGACLRVLEGHEELVRCIRFDNKRIVSGAYDGKIKVWDLVAALDPRAPAGTLCLRTLVEHSGRVFRLQFDEFQIVSSSHDDTILIWDFLNDPAAQAEPPRSPSRTYTYISR
notes: also called βTrCP-GST fusion; bTrCP; not shown: GST
With B2, the binding result in experiment [2] was “no binding”.

B3: FLAG-REST (810-910)-GFP reporter peptide S861A/S864A (peptide)
chain: ISKKPPLRKDKKEKSNMQSERARKEQVLIEVGLVPVKDSWLLKESVSTEDLAPPAPPLPKENLREEASGDQKLLNTGEGNKEAPLQKVGAEEADESLPGLA
notes: also called mutant (S861A/S864A) FLAG-REST (810-910); phosphorylation-resistant mutant S861A/S864A peptide; not shown: N-terminal FLAG tag with linker; C-terminal eGFP tag (pEGFP-N1)
Regarding B3, the binding result in experiment [3] is reported as “no binding”.

The record behind these values is patent US20160031958A1 (OREGON HEALTH AND SCIENCE UNIVERSITY, published 2016).
